In patent US10562947B2, “Compositions and methods for preventing or treating diseases, conditions or processes characterized by aberrant fibroblast proliferation and extracellular matrix deposition” (MOERAE MATRIX, INC., priority 2011, dated 2020):
Where a SMILES comes first, the peptide text is derived from it.

Key:
Assay in all cases: Kinase Profiling Assay
Type in all cases: biochemical
CaMKI(h) = CaMKI(h) (Homo sapiens, UniProt Q14012); settings: for CaMKI(h) % activity: 100 μM peptide
In short: (§1)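 MK2 inhibitory peptides were screened for specificity across a commercial panel of 266 human kinases, and each kinase activity measurement was run in duplicate.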

SAPK4(h) = target: T1, SAPK4(h) (Homo sapiens, UniProt O15264); settings: 100 μM peptide
T1 sequence (O15264 1-365): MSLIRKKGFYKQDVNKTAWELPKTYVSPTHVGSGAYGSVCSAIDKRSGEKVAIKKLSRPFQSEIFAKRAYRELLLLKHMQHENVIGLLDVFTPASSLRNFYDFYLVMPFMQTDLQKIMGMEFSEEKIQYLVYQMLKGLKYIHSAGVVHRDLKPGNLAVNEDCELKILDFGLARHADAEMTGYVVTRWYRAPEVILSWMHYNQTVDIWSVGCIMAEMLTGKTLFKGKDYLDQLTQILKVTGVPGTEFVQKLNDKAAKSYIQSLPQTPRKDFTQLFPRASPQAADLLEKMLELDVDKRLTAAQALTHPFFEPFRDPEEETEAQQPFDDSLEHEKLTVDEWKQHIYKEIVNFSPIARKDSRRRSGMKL
In short: as §1

CaMKIV(h) = target: T2, CaMKIV(h) (Homo sapiens, UniProt Q16566); settings: 100 μM peptide
T2 sequence (Q16566 1-473): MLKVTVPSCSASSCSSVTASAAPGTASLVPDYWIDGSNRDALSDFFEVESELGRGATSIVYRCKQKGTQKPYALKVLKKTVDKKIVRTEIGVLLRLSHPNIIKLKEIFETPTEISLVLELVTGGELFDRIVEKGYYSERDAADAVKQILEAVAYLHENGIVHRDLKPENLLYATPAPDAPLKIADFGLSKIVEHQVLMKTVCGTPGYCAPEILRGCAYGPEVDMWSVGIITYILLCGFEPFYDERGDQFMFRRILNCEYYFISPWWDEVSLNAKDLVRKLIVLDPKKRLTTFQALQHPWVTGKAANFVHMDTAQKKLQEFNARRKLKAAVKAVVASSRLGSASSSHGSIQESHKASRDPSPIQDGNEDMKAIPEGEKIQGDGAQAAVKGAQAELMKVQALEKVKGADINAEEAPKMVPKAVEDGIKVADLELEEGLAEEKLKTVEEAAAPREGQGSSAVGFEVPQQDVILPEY
In short: as §1

Fer(h) = Fer(h) (Homo sapiens, UniProt P16591); settings: 100 μM peptide
Fer(h), sequence (P16591 whole entry): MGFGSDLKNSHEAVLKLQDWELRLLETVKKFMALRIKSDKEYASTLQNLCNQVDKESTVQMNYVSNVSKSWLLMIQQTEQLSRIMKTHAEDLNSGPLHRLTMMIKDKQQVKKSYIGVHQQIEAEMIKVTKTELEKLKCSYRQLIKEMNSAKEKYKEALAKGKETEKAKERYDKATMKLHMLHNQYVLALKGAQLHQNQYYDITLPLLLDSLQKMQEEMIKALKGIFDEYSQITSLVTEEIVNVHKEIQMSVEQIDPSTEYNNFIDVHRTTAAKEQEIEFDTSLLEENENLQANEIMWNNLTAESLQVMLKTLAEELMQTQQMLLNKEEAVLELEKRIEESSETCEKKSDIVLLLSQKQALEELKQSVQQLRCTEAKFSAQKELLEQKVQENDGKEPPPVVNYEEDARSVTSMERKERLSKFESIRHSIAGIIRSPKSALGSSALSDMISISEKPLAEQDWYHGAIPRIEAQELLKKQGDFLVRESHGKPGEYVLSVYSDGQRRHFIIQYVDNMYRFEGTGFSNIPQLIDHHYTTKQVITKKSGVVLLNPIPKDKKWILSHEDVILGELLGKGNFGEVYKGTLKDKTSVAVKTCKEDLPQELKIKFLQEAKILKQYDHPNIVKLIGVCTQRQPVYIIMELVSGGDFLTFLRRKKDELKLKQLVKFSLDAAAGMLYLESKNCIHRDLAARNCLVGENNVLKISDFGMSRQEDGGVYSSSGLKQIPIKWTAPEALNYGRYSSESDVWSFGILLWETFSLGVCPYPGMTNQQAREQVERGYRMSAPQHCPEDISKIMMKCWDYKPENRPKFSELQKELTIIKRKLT
In short: as §1

EGFR(T790M,L858R)(h) = EGFR(T790M,L858R)(h) (Homo sapiens, UniProt P00533, L858R/T790M); settings: 100 μM peptide
In short: as §1

ZAP-70(h) = target: T3, ZAP-70(h) (Homo sapiens, UniProt P43403); settings: 100 μM peptide
T3 sequence (P43403 1-619): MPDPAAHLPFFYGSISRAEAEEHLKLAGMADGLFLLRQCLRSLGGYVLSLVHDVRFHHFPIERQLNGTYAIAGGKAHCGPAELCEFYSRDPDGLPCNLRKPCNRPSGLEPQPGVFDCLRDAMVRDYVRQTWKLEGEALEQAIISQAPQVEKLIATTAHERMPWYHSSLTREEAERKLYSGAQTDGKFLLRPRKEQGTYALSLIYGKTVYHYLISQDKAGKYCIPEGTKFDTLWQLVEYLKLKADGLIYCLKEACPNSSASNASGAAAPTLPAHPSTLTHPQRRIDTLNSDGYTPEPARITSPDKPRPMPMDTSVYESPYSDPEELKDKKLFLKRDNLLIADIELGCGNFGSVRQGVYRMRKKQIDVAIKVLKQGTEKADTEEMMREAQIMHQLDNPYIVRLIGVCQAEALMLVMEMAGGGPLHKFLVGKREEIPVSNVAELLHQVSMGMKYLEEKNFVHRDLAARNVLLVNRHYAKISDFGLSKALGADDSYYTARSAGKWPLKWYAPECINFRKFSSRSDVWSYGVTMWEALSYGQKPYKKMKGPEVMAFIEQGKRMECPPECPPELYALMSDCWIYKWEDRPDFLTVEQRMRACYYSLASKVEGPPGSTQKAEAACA
In short: as §1

CaMKIIδ(h) = CaMKIIδ(h) (Homo sapiens, UniProt Q13557); settings: 100 μM peptide
CaMKIIδ(h), sequence (Q13557 whole entry): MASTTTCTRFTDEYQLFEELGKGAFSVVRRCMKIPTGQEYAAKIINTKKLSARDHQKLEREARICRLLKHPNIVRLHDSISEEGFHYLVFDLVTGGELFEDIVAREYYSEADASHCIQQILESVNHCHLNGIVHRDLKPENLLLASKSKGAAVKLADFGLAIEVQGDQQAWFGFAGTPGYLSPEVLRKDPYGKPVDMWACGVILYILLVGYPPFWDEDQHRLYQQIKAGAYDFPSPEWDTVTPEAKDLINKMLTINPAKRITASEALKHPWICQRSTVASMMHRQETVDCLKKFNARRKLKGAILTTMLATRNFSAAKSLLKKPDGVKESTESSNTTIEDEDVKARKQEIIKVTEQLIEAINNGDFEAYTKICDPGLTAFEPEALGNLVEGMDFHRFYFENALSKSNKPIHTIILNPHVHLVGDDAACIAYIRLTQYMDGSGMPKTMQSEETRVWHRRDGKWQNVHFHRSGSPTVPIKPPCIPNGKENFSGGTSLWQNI
In short: as §1

JNK3(h) = JNK3(h) (Homo sapiens, UniProt P53779); settings: 100 μM peptide
JNK3(h), sequence (P53779 whole entry): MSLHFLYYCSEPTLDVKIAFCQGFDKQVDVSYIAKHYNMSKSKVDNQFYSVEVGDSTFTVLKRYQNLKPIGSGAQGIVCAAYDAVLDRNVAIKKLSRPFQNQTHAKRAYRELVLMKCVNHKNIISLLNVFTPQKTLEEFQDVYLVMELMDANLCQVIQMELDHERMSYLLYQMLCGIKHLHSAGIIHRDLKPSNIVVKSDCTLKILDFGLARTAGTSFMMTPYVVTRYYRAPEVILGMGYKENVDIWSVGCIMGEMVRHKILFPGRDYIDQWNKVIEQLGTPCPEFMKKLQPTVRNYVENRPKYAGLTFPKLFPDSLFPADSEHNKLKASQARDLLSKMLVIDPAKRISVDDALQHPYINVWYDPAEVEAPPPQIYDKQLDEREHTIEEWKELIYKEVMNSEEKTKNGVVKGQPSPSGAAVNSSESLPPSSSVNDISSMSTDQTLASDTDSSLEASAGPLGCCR
In short: as §1

CaMKI(h), sequence (Q14012 whole entry): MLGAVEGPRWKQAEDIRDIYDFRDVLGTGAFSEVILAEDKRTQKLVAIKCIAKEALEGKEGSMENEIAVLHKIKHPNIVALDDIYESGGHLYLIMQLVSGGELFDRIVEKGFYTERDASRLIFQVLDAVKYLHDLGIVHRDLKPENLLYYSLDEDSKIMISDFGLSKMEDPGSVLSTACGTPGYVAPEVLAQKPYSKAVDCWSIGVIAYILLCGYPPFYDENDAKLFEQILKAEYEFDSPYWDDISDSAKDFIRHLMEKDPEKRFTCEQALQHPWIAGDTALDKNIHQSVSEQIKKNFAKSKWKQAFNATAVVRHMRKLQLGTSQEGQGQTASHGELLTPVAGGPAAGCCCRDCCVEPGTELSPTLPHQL

FAKLAARLYRKALARQLGVAA [MMI-0300]
CaMKI(h) % activity (CaMKI(h)): 1% | SAPK4(h) % activity (SAPK4(h)): 96% | CaMKIV(h) % activity (CaMKIV(h)): 17% | Fer(h) % activity (Fer(h)): 130% | EGFR(T790M,L858R)(h) % activity (EGFR(T790M,L858R)(h)): 85% | ZAP-70(h) % activity (ZAP-70(h)): 75% | CaMKIIδ(h) % activity (CaMKIIδ(h)): 1% | JNK3(h) % activity (JNK3(h)): 89%

CC(C)C[C@H](NC(=O)[C@H](C)NC(=O)[C@H](CCCCN)NC(=O)[C@H](C)NC(=O)[C@H](CCCNC(=N)N)NC(=O)[C@H](C)NC(=O)[C@H](CCC(N)=O)NC(=O)[C@H](CCCNC(=N)N)NC(=O)[C@H](C)NC(=O)[C@H](C)NC(=O)[C@H](C)NC(=O)[C@H](CCCNC(=N)N)NC(=O)[C@H](C)NC(=O)[C@@H](N)Cc1ccc(O)cc1)C(=O)N[C@@H](C)C(=O)N[C@@H](CCCNC(=N)N)C(=O)N[C@@H](CCC(N)=O)C(=O)N[C@@H](CC(C)C)C(=O)NCC(=O)N[C@H](C(=O)N[C@@H](C)C(=O)N[C@@H](C)C(=O)O)C(C)C [MMI-0100] (H-YARAAARQARAKALARQLGVAA-OH; N-terminus and C-terminus assumed)
inhibition at 100 µM (CaMKI(h); read-out: inhibition of kinase activity of CaMKI): > 65%

KAFAKLAARLYRKALARQLGVAA [MMI-0400]
CaMKI(h) % activity (CaMKI(h)): 0% | SAPK4(h) % activity (SAPK4(h)): 91% | CaMKIV(h) % activity (CaMKIV(h)): 18% | Fer(h) % activity (Fer(h)): 108% | EGFR(T790M,L858R)(h) % activity (EGFR(T790M,L858R)(h)): 78% | ZAP-70(h) % activity (ZAP-70(h)): 33% | CaMKIIδ(h) % activity (CaMKIIδ(h)): 2% | JNK3(h) % activity (JNK3(h)): 70%

YARAAARQARAKALNRQLGVA (Mammalian) [MMI-0200]
CaMKI(h) % activity (CaMKI(h)): 21% | CaMKIV(h) % activity (CaMKIV(h)): 71% | Fer(h) % activity (Fer(h)): 101% | EGFR(T790M,L858R)(h) % activity (EGFR(T790M,L858R)(h)): 108% | ZAP-70(h) % activity (ZAP-70(h)): 58% | CaMKIIδ(h) % activity (CaMKIIδ(h)): 2% | JNK3(h) % activity (JNK3(h)): 90%

HRRIKAWLKKIKALARQLGVAA (Mammalian) [MMI-0500]
CaMKI(h) % activity (CaMKI(h)): −1% | SAPK4(h) % activity (SAPK4(h)): 48% | CaMKIV(h) % activity (CaMKIV(h)): −1% | Fer(h) % activity (Fer(h)): 196% | EGFR(T790M,L858R)(h) % activity (EGFR(T790M,L858R)(h)): 53% | ZAP-70(h) % activity (ZAP-70(h)): 1% | CaMKIIδ(h) % activity (CaMKIIδ(h)): 1% | JNK3(h) % activity (JNK3(h)): 171%
